Source: patent publication US11932880B2, “Enzyme and method for assaying pentosidine using same” (priority 2018, dated 2024)

Assays:
[1] = Range of stable pH of PenOX2 (residual activity after 25° C., 20 hours); assay type: physicochemical
Experimental: (§1) 600 μL of an arbitrary buffer, 400 μL of deionized water solution in which 3.99 U/mL peroxidase, 1.8 mM 4-aminoantipyrine and 2 mM TOOS were dissolved, and 150 μL of deionized water were incubated at an arbitrary temperature for 10 minutes. Then, 50 μL of the enzyme solution having been stored on ice and 400 μL of a solution of 4 mM pentosidine dissolved in a 100 mM potassium phosphate buffer (pH 8.0) having been incubated at an arbitrary temperature for 10 minutes were added thereto, followed by stirring and reacting at an arbitrary temperature for 3 minutes. A change over time of A555 during the reaction was measured using a spectrophotometer (U-3900, manufactured by Hitachi High-Tech Science Corporation). An elapsed time from the start of the measurement of 20 seconds to 60 seconds—A555 change was regarded as an activity value.
Treatments were performed respectively using, as a buffer solution, a 100 mM citric acid-200 mM potassium phosphate buffer (pH 3.0 to 6.5), a 200 mM potassium phosphate buffer (pH 6.5 to 8.0) and a 200 mM glycine buffer (pH 8.0 to 10.0) at respective pH and at 25° C. for 20 hours, and then, residual activity of PenOX2 was measured.

[2] = Measurement of L-arginine oxidation activity of hypha extract; assay type: biochemical; conditions: intracellular recombinant PenOX2 after anion exchange and ultrafiltration concentration
Experimental: 200 μL of each crude enzyme solution was mixed with a 380 μL of 150 mM potassium phosphate buffer solution (pH 7.0) in which 7.1 U/mL peroxidase, 0.70 mM 4-aminoantipyrine and 0.79 mM TOOS were dissolved. The resultant mixture was incubated at 37° C. for 5 minutes, and 20 μL of a 60 mM L-arginine solution was added thereto, followed by stirring, and reacting at 37° C. for 5 minutes. A change over time of A555 during the reaction was measured using a spectrophotometer (U-3900, manufactured by Hitachi High-Tech Science Corporation). A control experiment was performed by adding 20 μL of ion-exchanged water instead of 20 μL of the 60 mM L-arginine solution. An amount of the enzyme generating 1 μmol of hydrogen peroxide per minute at 37° C. was defined as one unit (U), and the activity was calculated in accordance with the following equation: Activity (U/mL)={(ΔAs−ΔA0)×0.6×df}/(39.2×0.5×0.2) • ΔAs: change of A555 per minute of reaction solution • ΔA0: change of A555 per minute of control experiment • 39.2: millimolar absorbance coefficient (mM^−1·cm^−1) of quinoneimine pigment generated through reaction • 0.5: molar number of quinoneimine pigment generated by 1 mol of hydrogen peroxide • 0.6: volume (mL) of whole reaction solution • df: dilution factor • 0.2: volume (mL) of enzyme solution

[3] = Thermal stability of PenOX2 (residual activity after 10 minutes treatment); assay type: physicochemical; conditions: treated 10 minutes at respective temperatures; residual activity measured at pH 7.5, 37° C.; FIG. 9
Experimental: as §1
Residual activity obtained when the enzyme solution was treated for 10 minutes at respective temperatures was evaluated by performing the activity measurement described above by using a potassium phosphate buffer (final pH in the activity measurement: pH 7.5, final concentration of 100 mM) at 37° C.

[4] = Enzyme activity measurement with pentosidine as substrate (A555 change, U/mL); assay type: biochemical
Experimental: as §1
Besides, an amount of the enzyme generating 1 μmol of hydrogen peroxide per minute at 37° C. was defined as one unite (U), and the activity was calculated in accordance with the following equation. Activity (U/mL)={(ΔAs−ΔA0)×1.6×df}/(39.2×0.5×0.05) • ΔAs: change of A555 per minute of reaction solution • ΔA0: change of A555 per minute of control experiment • 1.6: volume (mL) of whole reaction solution • df: dilution factor • 39.2: millimolar absorbance coefficient (mM^−1-cm-1) of quinoneimine pigment generated through reaction • 0.5: molar number of quinoneimine pigment generated by 1 mol of hydrogen peroxide • 0.05: volume (mL) of enzyme solution
A 50 mM citric acid-100 mM potassium phosphate buffer (pH 4.0 to 7.5, a final concentration), a potassium phosphate buffer (pH 6.5 to 8.0, a final concentration of 100 mM), and a glycine buffer (pH 8.0 to 11.0, a final concentration of 100 mM) were prepared, and these were used to perform an enzymatic reaction at respective pH at a temperature of 37° C. […] Therefore, it was determined that the optimum pH of PenOX2 is pH 6.5 to 8.0, and that the most suitable optimum pH is pH 7.5.
A potassium phosphate buffer (pH 7.5) having a final concentration of 50 mM was used to perform the activity measurement of PenOX2 at various temperatures. The highest activity was obtained around 50° C., and a temperature range for attaining 80% or more of this highest activity was 37° C. to 50° C. Therefore, it was determined that the range of the optimum temperature of PenOX2 is 37° C. to 50° C.
The above-described activity measurement method was employed to perform activity measurement using a potassium phosphate buffer (final pH in the activity measurement: pH 7.5, final concentration of 50 mM) at 37° C., and an activity value (U/mL) was obtained by using the aforementioned equation.
As described above, both PenOX1 and PenOX2 had the pentosidine oxidase activity. […] Subsequently, the following three enzymes were purchased, and the above-described activity measurement method was employed for confirming their pentosidine oxidase activity using a potassium phosphate buffer (pH 7.5, final concentration of 100 mM) at 37° C. The amino acid sequence homologies with PenOX1 and PenOX2 and the pentosidine oxidase activities of these enzymes were as follows.

[5] = Pentosidine quantitative test (DA-67/peroxidase, A658, Bio Majesty JCA-BM1650); assay type: biochemical; conditions: 0.2-4.0 μM pentosidine solutions, 37° C., 5 minutes; ΔA658 correlated with final pentosidine concentration (FIG. 4)
Experimental: The following reagents were prepared to measure pentosidine by using Bio Majesty JCA-BM1650 (manufactured by JEOL Ltd.).
0.2 μM, 0.4 μM, 0.6 μM, 1.0 μM, 2.0 μM or 4.0 μM pentosidine solution
25 μL of the sample was added to 50 μL of the first reagent, and the resultant was incubated at 37° C. for 5 minutes. Then, 25 μL of the second reagent was added thereto to allow a pentosidine oxidation reaction owing to PenOX2 and a detection reaction for hydrogen peroxide generated through the reaction to proceed at 37° C. for 5 minutes.
In the detection reaction for hydrogen peroxide, simultaneously with consumption of […], DA-67 is oxidized into methylene blue to present the color, and the absorbance (A658) is increased. As an example, the relationship between the elapsed time after the mixture of the sample (4.0 μM pentosidine solution) and the first reagent and the absorbance (A658) is shown in FIG. 3. It was confirmed that A658 increased immediately after the addition of the second reagent containing PenOX2.
Subsequently, an A658 increment (AA) caused by the oxidation of pentosidine was calculated in accordance with the following equation: ΔA=(absorbance 5 min after addition of second reagent)−(absorbance immediately before addition of second reagent×0.75)

B1: PenOX2: protein having the amino acid sequence of SEQ ID NO: 4, pentosidine oxidase from Sarocladium sp., gene g10122; recombinant from Aspergillus sojae (protein, listed as Sarocladium sp.)
chain: MFTPKAWIPLLALSREVFSNPTSASHSISFHGLLGVSSESVHNIHLTYGDAFPHGDFRVVFGDCGMTSEDELHHEVASLSTKMESAPDRLVWLVPKDVRENGCLHAFSEGVLLGRSEPVAFTEPLRKRESLSEIGDSDGLWFSGIRYLQSSNLTSVKAAEAKEKKIGIVGGGISGLMTSLLLTSVGMTNWHIIEATERVGGRIRTKYMNGTSPDDYQYQEMGPMRFPVEVKYNDTNETLPIQDHKMVFQLAEVLNEMNGNDTDLAVKFIPWTQNNPNTPANSRGYRLPDGRIPTAAQIAQNPSILPAAANASDPQDAELGKESLERLSDLTPERMRNISANIFKAHRDAIDRGLFHWSEAAYLRYQLGLDDDTVDFVAASDNYPMFPDWWHAVYFAATKWLTIDKGLDSLSRAFVPHVKDKITYGRKIEAMQWNESTSKISLSWRESPLAAAKSDEYDYAVVAVPFSKVRLWKRPAYSNLLTRAIGKLNYEQACKVALLYETRFWEHQEIPIFGGCGSVDIPGIGGVCYPSYEINSTRPGVILSSYITGTEARSVVALSEEDHVAMVQRAMVEVHGPMADEQWTGIYDRLCWEVDENAAGGWASPTVGQQELFIPAYHKTELNTIFIGEHTSITHGWIFSALESSVRGTTQLLLDLGLVDEAKQIVETWMARWITV
residual activity relative to PenOX2 stored at 4° C. ([1]; pH range 4.0 to 9.0, FIG. 10): ≥ 60% | residual activity relative to PenOX2 stored at 4° C. ([1]; pH range 4.5 to 7.5, FIG. 10): ≥ 90% | L-arginine oxidation activity of concentrate of purified PenOX2 solution [2]: 24 U/mL | temperature up to which enzyme was stable [3]: about 30 °C | pH of highest activity (most suitable optimum pH) ([4]; 37° C., FIG. 7): 7.5 pH | activity relative to highest activity ([4]; at 37° C. to 50° C., pH 7.5): ≥ 80% | activity relative to value in potassium phosphate buffer of around pH 7.5 ([4]; at pH 6.5 to 8.0, 37° C.): ≥ 70% | Km ([4]; pH 7.5, 50 mM potassium phosphate, 37° C., Lineweaver-Burk plot, FIG. 11): 140 µM | specific activity against pentosidine ([4]; pH 7.5, 50 mM, 37° C., protein by Bradford method): 29.1 U/mg | activity value against pentosidine ([4]; potassium phosphate buffer pH 7.5, 50 mM, 37° C.): 7.8 U/mL | temperature of highest activity ([4]; potassium phosphate buffer pH 7.5, 50 mM, FIG. 8): around 50 °C | pentosidine oxidation activity [5]: exhibits the pentosidine oxidation activity
